# In the DeepSol protein solubility set:
# Experiment: soluble on expression in E. coli; label from the status in PepcDB or PDB records
row,Sequence,soluble on expression in E. coli
1,SHEWYAEKPFMLRSFLDRTVLQQAFESPETLTSLGFLESIGITGHNAELDDDRPEKTDALFAEMKKVKETLLTYDDSDLDESQLLSKEIAMYLLDILLVSEPYRYHNYPVNQLFGIQNGYPSFMDAQHQVNSVGDAENYIARLNKVKVKFSQNLEGLKLREEKGILPPRFVIDRVLEEMTAFVAKPAEENILYSSLKAKLSDAEDISPAEQTRLLNLAKEEIIASVHPAYQLLIDYFNQVADKSTTDDGIWKLPDGDKVYAQALKFFTTTDYSAGEIHNIGLHEVDRIQLDILTILEKENYDVSQGFTAAIETLAAQDEFYYPDTKAGREQILTDYQTILDEINAGLESAFRIRPKASMKVRRIPEFKEKTAPGAYYQQPSIDGSRPGMFFANLYDIKATPKYSMRTLAYHEGIPGHHFQIAIAMELEGMPLFRRISPFTAYTEGWALYTERLAWDLGFQDDPFDNIGRLQAELFRAVRLVVDTGIHHKRWTRQEAIDYMVANTGMAHSDVVSEIERYIVMPGQATSYKIGLMKILELRKKAKASLGDKFDLRDFHDVVLKNGAVPLDILTRLVDQYIADKSS,not soluble
2,MAHHHHHHMVEAQRGYNCVWHSWPPPLQGVNKHFNSCAASPLPLQLLVGNRILLITKDPPLKVIKFFNEFQPEEYIKPGNICTQNVTLKFGDVLNVPVSMQKDLQKRKVTFDIVDQKIVIRKDKVLAEKDKLVSAENAKLLRMLNMKIANFDITVLGYWNVNKFVSLM,soluble
3,MGHHHHHHSHMYAKEIFSYMKEREEQFILTDYMNRQIEITSDMRAILVDWLVEVQVSFEMTHETLYLAVKLVDLYLMKAVCKKDKLQLLGATAFMIAAKFEEHNSPRVDDFVYICDDNYQRSEVLSMEINILNVLKCDINIPIAYHFLRRYAR,not soluble
4,MNRVDLSIFIPDSLTAETGDLKIKTYKVVLIARAASIFGVKRIVIYHDDADGEARFIRDILTYMDTPQYLRRKVFPIMRELKHVGILPPLRTPHHPTGKPVTGEYRQGLTVKRVKKGTLVDIGADKLALCREKLTVNRIMSFRVVRLGKEILIEPDEPEDRYWGYEVLDTRRNLAESLKTVGADVVVATSRNASPITSILDEVKTRMRGAREAAILFGGPYKGLPEIDADIWVNTLPGQCTETVRTEEAVLATLSVFNMLTQIDEKDE,soluble
5,MENRPVNIVLPKIENPILIEGYPGIGLVGHIAANFLAKELKMEVIGYVESSFIPPMSLILEGKPNPPLRFYGKDNIIIAVADIYLPPTLINEIAKEIANYLEQNKAEKVISLGGMGIGIFKDKFEVWGVGGTEEENKELQDLGVKILEYGSISGMSGKLLWEASRRGLKSYVILGETFGDRPDPRAAANVVEVLDRMLTLNVSVEPLLKEAEMIEEQLRKMHEQMEKARRSVEKQYETMYL,soluble
6,LSDDRYFIFFNQPKTPEESIQLLGAQAGDTESFRVTLDRIPPQIQKLSFTATLDGAGQMSQVAPGYLRIVAGGEEVARYSFTGSEFSTERAVMLGDFYLKDVWRFAAVGQGFDGGLDALLKNFGGEVAEEEPAVPAQTQSGAAPSFAPPAFGAPAAPAPAPAPAPQPAQGFTPPPGPTPPPAPAPAPSVHAAPTIVGPLHTPPGGTVPPPGPAPYAQ,not soluble
7,MCIKGCKRRIHPTRLLMLIRTEAPADILVVDQLLKNVFATEAEADLVMALRENGQRTLSLVACDDEGEIVGHVMFSPVTLEGEDLNWQGLAPLAVKEEYRRQGIGAELVKEGLSSLGELGYPACVVLGDPAYYSRFGFEDAARYSLRCAWDVPQGAFQVVALWERELDGRCGVIEYSQEFAAL,not soluble
8,MAQVSTTAGGAVGVNRSQSMLLSSQEVEQMSAKSYAGELQKARAAGRLNTDPALTARVRRVSQRLIAQTPSFRPDARNWRWEVNVLTTDDMNAYAMAGGKIMVYTGLVKQLKLSDAELAAVIGHEISHALREHTRENMSQAYAQQMGLGLVGALVGLNDSQLKLASLVGDVTLSKPHSRTMESEADIMGLELMARAGYDPNAAVNVWQKMQAAGGGGGMEFLSTHPSGPTRIRDLQAHIPQVWPLYQAAPKKGLEHHHHHH,not soluble
